The text below walks through data of patent publication US20260069689A1 (Regeneron, published 2026).

This experiment deals with SARS-COV-2 RBD extracellular domain expressed with a C-terminal myc-myc-hexahistidine tag (SARS-COV-2 RBD-mmH) (SARS-CoV-2). The experiment is described as follows: SPR Biacore, mAb captured on anti-hFc, RBD-mmH analyte, 37 C. (In SPR one partner is held on a chip, and binding of the other changes the refractive index at the surface.)

Changes are numbered by the printed parent chain.

B1: mAb14315 (antibody, V domains shown)
VH: QVQLVQSGAEVKKPGSSVKVSCKASGDTFSTYAINWVRQAPGQGLEWMGRFIHIFGTANYAQKFQGRVTITADESTSTAYMELRSLRSEDTAVYYCARDGVDYGDYRPDYWGQGTLVTVSS
VL: EIVLTQSPGTLSLSPGERATLSCRASQSVSSNYLAWYQQKPGQAPRLLIYGASSRATGIPERFSGSGSGTDFTLTISRLEPEDFAVYYCQQYGSSLYTFGQGTKLEIKR
The term Kd denotes the free concentration of one partner at which half of the binding sites on the other are occupied at equilibrium, for simple one-to-one binding. Read a high Kd as lower affinity. For orientation: koff means a measure of how fast the partners let go of each other. The low end stands for slow dissociation, the high end for fast dissociation. Broadly, the kon is the second-order rate constant of association. One may read the t½ as how long it takes for the measured level to halve. Low values mean rapid decline, high ones slow decline. B1 registered an equilibrium dissociation constant (Kd) of 2.26 nM, a dissociation rate constant (koff) of 0.000985 s⁻¹, an on-rate (kon) of 435000 M⁻¹ s⁻¹ and a t½ of 11.7 min.

B2: mAb14255 (antibody, V domains shown)
VH: QVQLQESGPGLVKPSETLSLTCTVSGGSISGYYWSWIRQPPGKGLDWIGYIYYRGNTNYNPSLKSRVTISVDTSNNQFSLKLSSVTAADTAVYYCARYGEGYGDASGYHFDYWGQGTLVTVSS
VL: QSALTQPASVSGSPGQSITISCTGTSSDVGSYNLVSWYQQHPGKAPKLMIYEDSKRPSGVANPFSGSKSGNTASLTISGLQAEDEADYYCSSYAGSSTWVFGGGTKLTVLG
Regarding B2, binding was put at a Kd of 2.76 nM, the koff was 0.00535 s⁻¹, the on-rate (kon) was found to be 1.94e+06 M⁻¹ s⁻¹ and the t½ came out at 2.2 min.

B3: mAb14313 (antibody, V domains shown)
VH: EVQLVESGGGLVQPGRSLRLSCVASGFTFDDSAMHWVRQPPGKGLEWVSGISWNSGIIGYAESVKGRFIISRDNAKNSLFLHMRGLRPEDTAVYYCARDRLELSYYYYGMDVWGQGTTVTVSS
VL: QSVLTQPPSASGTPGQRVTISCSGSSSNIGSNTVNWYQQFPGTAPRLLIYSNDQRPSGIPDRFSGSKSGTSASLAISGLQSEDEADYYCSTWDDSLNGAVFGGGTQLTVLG
B3 returned a Kd of 0.921 nM, an off-rate (koff) of 0.00259 s⁻¹, a kon of 2.81e+06 M⁻¹ s⁻¹ and a t½ of 4.5 min.

B4: mAb14281 (antibody, V domains shown)
VH: QVQLVQSGADVKKPGASVKVSCKTSGYIFTGYYIHWVRQAPGQGLEWMGWINPNSGGTNSAQKFQGRVTMTRDTSISTVYMELSRLRSDDTAVYYCAKSNSFSVLDYNFDYWGQGTLVTVSS
VL: SSELTQDPAVSVALGQTVRITCQGDSLRSYYASWYQQKPGQAPVLVIYDKNNRPSGIPDRFSGSSSGNTASLTITGAQAEDEADYYCNSRDSSRNHLVVFGGGTKLTVLG
In turn, B4 came in with a dissociation constant (Kd) of 5.2 nM, a koff of 0.00582 s⁻¹, an on-rate constant (kon) of 1.12e+06 M⁻¹ s⁻¹ and a t½ of 2 min.

B5: mAb14284 (antibody, V domains shown)
VH: QITLKESGPTLVKPTQTLTLTCTFSGFSFSTSGVGVGWIRQPPGKTLEWLALIYWDDDKRYSPSLKSRLTITKDTSKNQVVLTMTNMDPVDTATYFCAHHGIPTIFGYWGQGALVTVSS
VL: QSALTQPASVSGSPGQSITISCTGTSSDLGVFNYVSWYQQHPGKAPKLMIYEVTNRPSGVSNRFSGSKSGNTASLTISGLQAEDEADYYCSSYTTSSTVFGGGTKLTVLG
As to B5, binding was characterised by a dissociation constant (Kd) of 0.94 nM, the koff amounted to 0.000605 s⁻¹, the on-rate (kon) came out at 644000 M⁻¹ s⁻¹ and the t½ was 19.1 min.

B6: mAb14235 (antibody, V domains shown)
VH: QITLKESGPTLVKPTQTLTLTCTFSGFSLNTGGVGVGWIRQPPGNALEWLALIYWDDDKRYNPSLKTRLTISKDTSKNQVVLTMTNMDPVDTATYFCAHLTIAVIVDFWGQGTLVTVSS
VL: B5 VL with G24A, L29V, V31T, F32Y, Y38F, Q40H, S96T, T98I
In turn, B6 registered a Kd of 1.37 nM, an off-rate (koff) of 0.00109 s⁻¹, a kon of 793000 M⁻¹ s⁻¹ and a t½ of 10.6 min.

B7: mAb14312 (antibody, V domains shown)
VH: EVQLVESGGGLVQPGGSLRLSCAASGFTVSRSYMTWVRQAPGKGLEWVSVIFTGGRTDHADSVKGRFTISRHNSKNTLYLQMNSLRTEDTAVYYCARVAIVGATGAFDIWGQGTMVTVSS
VL: QSVLTQPPSVSGAPGQRVTISCTGSSSNIGAGDDVHWYQQLPGTAPKLLIYGNSNRPSGVPDRFSGSKSGTSASLAITGLQAEDEADYYCQSYDSSLSGSVVFGGGTKLTVLG
For the molecule B7, binding was put at a Kd of 0.631 nM, the koff turned out to be 0.000988 s⁻¹, the on-rate (kon) was determined as 1.57e+06 M⁻¹ s⁻¹ and the t½ turned out to be 11.7 min.

B8: mAb14257 (antibody, V domains shown)
VH: B7 VH with T35N, I51V, R56T, D58K, A60T, H72D, K75M, T87P, G102E, A103T
VL: B7 VL with S25T, G32D, D33F, L41F, N53H, S54T, V60I
B8 yielded a dissociation constant (Kd) of 2.34 nM, an off-rate constant (koff) of 0.00762 s⁻¹, a kon of 3.26e+06 M⁻¹ s⁻¹ and a t½ of 1.5 min.

B9: mAb14282 (antibody, V domains shown)
VH: QVQLVQSGAEVKKPGASVKVSCKASGYIFTDHYMHWVRQAPGQGLEWMGWINPNSGATNYAQNFQGRVTMTRDTSIITVYMELSRLRSDDTAVYYCARDSSPYMIRYTMDVWGQGTTITVSS
VL: QSALTQPASVSGSPGQSITISCTGTSSDVGSYNLVSWYQQHPGKAPKLMIYELTKRPSGVSNRFSGSKSGNTASLTISGLQAEDEADYYCSSYRGSVTDVVFGGGTKLTVLG
As for B9, the Kd worked out at 5.37 nM, the koff was determined as 0.0106 s⁻¹, the kon was 1.98e+06 M⁻¹ s⁻¹ and the t½ amounted to 1.1 min.

B10: mAb13458 (antibody, V domains shown)
VH: EVQLVESGGGLVQPGRSLRLSCAASGFTFDDYAMHWVRQAPGKGLEWVSGISWNSGSIGYADSVKGRFTISRDNAKNSLYLQMNSLRAEDTALYYCAKDIGITTPYWGQGTLVTVSS
VL: AIQMTQSPSSLSASVGDRVTITCRASQDIRNDLGWYQQKPGKAPKLLIYSASSLQTGVPSRFSGSGSGTDFTLTISSLHPEDFATYYCLQDYWYTWTFGQGTKVEIKR
With B10, the Kd amounted to 1.54 nM, the koff came to 0.00139 s⁻¹, the on-rate constant (kon) worked out at 907000 M⁻¹ s⁻¹ and the t½ came to 8.3 min.

B11: mAb13459 (antibody, V domains shown)
VH: B10 VH
VL: B10 VL with W93N, T95V
In the case of B11, the Kd came out at 2.6 nM, the koff amounted to 0.00204 s⁻¹, the on-rate constant (kon) was found to be 786000 M⁻¹ s⁻¹ and the t½ stood at 5.7 min.

B12: mAb14294 (antibody, V domains shown)
VH: EVQLVESGGGLVQPGGSLRLSCAASGFTFSNHWMDWVRQAPGKGLVWVSRINSDGSSTDYADSVRGRFTMSRDNAKNTLYLQMSSLRAEDTAVYYCAREGMIFGAVIIPGWYFDLWGRGALVTVSS
VL: EIVLTQSPGTLSLSPGERATLSCRASQSVSSSQLAWYQQKPGQAPRLLIYGASSRATGIPDRFSGSGSGTDFTLTISRLEPEDFAVYYCQQYDSFGQGTKLEIKR
On to B12, for which the Kd worked out at 0.984 nM, the koff was 0.00059 s⁻¹, the association rate constant (kon) is 600000 M⁻¹ s⁻¹ and the t½ was 19.6 min.

B13: mAb14258 (antibody, V domains shown)
VH: QLQLQESGPGLVKPSETLSLICTGSGDSISSSHYYWGWIRQPPGKGLEWIGSTYFSGSTYYNPSLKSRVSISVDTSKNQVSLKLISVTAADTAVYYCAREMGATLGDYWGPGTLVTVSS
VL: QSVLTQPPSASGTPGQRVTISCSGSSSNIGNNYVYWYQQFPGTTPRLLIYRNNERPSGVPDRFSGSKSGTSASLVISGLRSEDEADYYCAAWDDSLSAHYVFGTGTKVTVLG
As to B13, the dissociation constant Kd is 0.796 nM, the off-rate (koff) was 0.0017 s⁻¹, the on-rate (kon) came to 2.14e+06 M⁻¹ s⁻¹ and the t½ came to 6.8 min.

B14: mAb14289 (antibody, V domains shown)
VH: QVQLVQSGPEVKKPGASVKVSCKASGYTFTSYAISWVRQAPGQGLEWMGWISAYNGNTNYAQKLQGRVTMTTDTFTSTAYMELRSLRSDDTAVYYCAVPADHITFDYWGQGTLVTVSS
VL: EIVLTQSPGTLSLSPGERATLSCRASQSVSSYLAWYQQKPGQAPRLLIHGASSRATGIPDRFSGSGSGTDFTLTISRLEPEDFAVYYCQQYGSSFLTFGGGTKVEIKR
In turn, B14 displayed a Kd of 1.46 nM, a koff of 0.00176 s⁻¹, an association rate constant (kon) of 1.2e+06 M⁻¹ s⁻¹ and a t½ of 6.5 min.

B15: mAb14283 (antibody, V domains shown)
VH: QVQLQESGPGLVKPSGTLSLTCDVSGGSISSNNWWSWVRQRPGKGLQWIGEIYHNENTNYNPSLKSRVIMSIDKSKNQFSLKLTSVTAADTAVYYCARGDVLDWFDPWGQGTLVTVSS
VL: QSALTQPASVSGSPGQSTTISCTGTSSDVGGYNYVSWYQQYPGKAPKLMIYDVTNRPSGVSHRFSGSKSGNTASLTISGLQAEDEADYYCSSYTSSSTVIFGGGTKLTVLG
B15 showed a Kd of 1.17 nM, a koff of 0.00179 s⁻¹, a kon of 1.54e+06 M⁻¹ s⁻¹ and a t½ of 6.4 min.

B16: mAb14286 (antibody, V domains shown)
VH: QVQLVQSGAEVKKPGASVKVSCKASGYTFTDYFIHWVRQAPGQGLEWMGWINPTSGGTNYAQKFRGRVTMTRDTSISTAYVELSRLRSDDTALYYCARDLPFYSDTKQFDYWGQGTLVTVSS
VL: B15 VL with S13Y, T18I, Y41H, Y51F, T54S, H62N, I77F, V99L, I100V
B16: the dissociation constant (Kd) turned out to be 3.07 nM, the koff worked out at 0.0104 s⁻¹, the kon stood at 3.38e+06 M⁻¹ s⁻¹ and the t½ is 1.1 min.

B17: mAb14247 (antibody, V domains shown)
VH: QITLKESGPTLVKPTQTLTLTCTFSGFSLSTSAVGVGWIRQPPGKALEWLALIYWDDDKRYSPSLKSRLTITKDTSKNQLVLTMTNVDPVDTATYYCAHHTIQLIFDYWGQGTLVTVSS
VL: QSALTQPASVSGSPGQSITISCTATSSDVGNYNYVSWYQQHPGKAPKLMIYEVSNRPSGVSNRFSGSKSGNTASLTISGLQAEDEADYYCSSYTSSSTPLVFGGGTKLTVLG
As to B17, the Kd is 1.95 nM, the dissociation rate constant (koff) was determined as 0.00163 s⁻¹, the kon was 832000 M⁻¹ s⁻¹ and the t½ was 7.1 min.

B18: mAb14230 (antibody, V domains shown)
VH: EVQLVESGGGLIQPGRSLRLSCAASGFTFDDYAMHWVRQAPGKGLEWVSGISWNSVSIDYADSVKGRFTISRDNAKNSLYLQMTSLTVEDTALYYCAKAFGYETLTGSDYFAYWGPGTLVTVSS
VL: EIVLTQSPGTLSLSPGERATLSCRASQTVISTYLAWYQQKPGQSPRLLIYGASSRATGIPDRFSGSGSGTDFTLTISRLEPEDFAVYYCQQYGSSPQLTFGGGTKVEIKR
In turn, B18 registered a Kd of 7.61 nM, an off-rate constant (koff) of 0.00876 s⁻¹, a kon of 1.15e+06 M⁻¹ s⁻¹ and a t½ of 1.3 min.
